The target in one assay is T1, human IL-23 (human, UniProt P29460 23-328; Q9NPF7 20-189).
T1 construct: Recombinant (Ebioscience); HIS-tagged in flow cytometry, biotinylated in some assays; also called hIL-23; rhIL-23
T1 sequence 1: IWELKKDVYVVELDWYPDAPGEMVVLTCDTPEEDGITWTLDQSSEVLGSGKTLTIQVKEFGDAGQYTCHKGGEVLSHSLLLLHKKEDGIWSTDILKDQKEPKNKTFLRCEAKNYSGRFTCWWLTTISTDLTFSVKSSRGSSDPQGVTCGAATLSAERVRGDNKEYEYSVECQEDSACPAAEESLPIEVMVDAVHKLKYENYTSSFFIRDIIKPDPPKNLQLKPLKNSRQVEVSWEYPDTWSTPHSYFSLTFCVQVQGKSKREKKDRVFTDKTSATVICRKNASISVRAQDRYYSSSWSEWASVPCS
T1 sequence 2: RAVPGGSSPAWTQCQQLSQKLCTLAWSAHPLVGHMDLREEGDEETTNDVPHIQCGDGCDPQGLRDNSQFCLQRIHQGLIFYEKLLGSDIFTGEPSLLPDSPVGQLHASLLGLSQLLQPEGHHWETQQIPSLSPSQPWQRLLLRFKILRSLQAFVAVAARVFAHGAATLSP
Briefly: ELISA, coated IL-23. On the procedure:
This cysteine at the start of CDR3 could be oxidized, causing heterogeneity in any resulting antibody product. It could also form complexes by disulphide bond formation. Therefore, each of the other 18 (the exceptions being the original Cys and Trp) amino acids was substituted in this position using gene synthesis, and the antibodies were expressed transiently (Antibodies 5, 6, 7, 8, 9, 10, 11, 12, 13, 14, 15, 16, 17, 18, 19, 20, 21, 22). An ELISA was performed on these antibodies (FIG. 9). Some of the antibodies retained binding activity for both IL-12 and IL-23, others only for one cytokine or the other, while others minimally bound to either cytokine.
IL-12 (Peprotech), IL-23 (Ebioscience™), IL-12p40 (Ebioscience™) or IL-12p80 (Peprotech), was diluted to 1 μg/mL in carbonate coating buffer ([…] pH 9.6) and coated onto a 96 well plate (Nunc™, Maxisorp™) overnight at 4° C. The plate was then washed three times with wash buffer (0.01M PBS pH 7.2, 0.05% Tween-20) and then three times with 0.01M PBS pH 7.2. The wells were then blocked by adding 200 μl of blocking buffer (1% w/v BSA in 0.01 M PBS pH 7.2) to each well and incubating the plate at 25° C. for 1 hour. The antibody was diluted in antibody diluent (1% w/v BSA, 0.05% Tween-20 in 0.01M PBS pH 7.2) sufficient to generate a titration curve. The wells were incubated with the antibody for 1 hour at 25° C. The plate was then washed as previously described. Goat anti-human immunoglobulin G (H+L) antibody HRP conjugate (Zymed®) at 1:2000 in antibody diluent was used to detect bound primary antibody. Goat anti-murine immunoglobulin antibody HRP conjugate (Dako) at 1:2000 in antibody diluent was used to detect bound murine antibody. After incubation at 25° C. for 1 hour the plate was washed again as previously described. TMB substrate solution (Zymed®) was added to each well and the colour allowed to develop; the reaction was terminated by adding 1M HCl to the wells. The absorbance of each well was determined at 450 nm (ref. 620 nm).

The target of the next assay is T2, human IL-12 (human, UniProt P29460 23-328; P29459 23-219).
T2 construct: Recombinant (Peprotech); FLAG-tagged IL-12 in the flow cytometry assays, biotinylated in the IL-12Rβ2 assay; also called hIL-12
T2 sequence 1: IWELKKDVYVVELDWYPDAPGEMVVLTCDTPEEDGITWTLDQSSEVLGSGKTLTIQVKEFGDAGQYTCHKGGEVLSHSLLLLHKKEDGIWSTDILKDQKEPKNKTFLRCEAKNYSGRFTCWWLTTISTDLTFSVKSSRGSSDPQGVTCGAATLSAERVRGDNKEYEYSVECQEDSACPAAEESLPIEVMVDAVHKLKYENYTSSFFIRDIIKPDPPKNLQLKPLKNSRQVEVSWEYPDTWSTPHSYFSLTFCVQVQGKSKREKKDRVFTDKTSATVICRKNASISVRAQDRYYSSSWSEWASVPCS
T2 sequence 2: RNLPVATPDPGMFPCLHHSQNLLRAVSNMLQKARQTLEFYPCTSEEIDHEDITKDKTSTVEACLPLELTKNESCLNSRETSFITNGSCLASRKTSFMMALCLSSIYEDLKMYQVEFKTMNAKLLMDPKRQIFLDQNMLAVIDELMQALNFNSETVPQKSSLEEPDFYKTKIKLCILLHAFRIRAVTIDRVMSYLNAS
Description: ELISA, coated IL-12. The essentials:
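Maxisorp plates were coated overnight at 4° C with cytokine at 1 μg/mL in carbonate buffer pH 9.6, then blocked for 1 hour at 25° C with 1% BSA in PBS. Antibody titrations were allowed to bind for 1 hour at 25° C and detected with goat anti-human IgG or anti-murine immunoglobulin HRP (1:2000, 1 hour), followed by TMB development stopped with 1M HCl. Binding is reported as absorbance. Readings were taken at 450 nm against a 620 nm reference.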

B1: Antibody 5 (antibody, human IgG1, kappa, V domains shown)
VH: EVQLQQSGADLVRSGASIKLSCTASGFNIKDYYMHWVKQRPEQGLEWIGWIDPENGDTEYAPKFQGKATMTADTSSNTAYLQLSSLTSEDTAVYYCNAAKELRYFDVWGAGTTVTVSS
VL: DIVLTQSPATLSVTPGDSVSLSCRASQSISINLHWYQQKSHESPRLLIKFASQSISGIPSRFSGYGSGTDFTLSINSVETEDFGRYFCQQSNSWPLTFGAGTKLELKR
Consider B1, for which the binding result with human IL-23 and with human IL-12 was “binds” each time.

B2: Antibody 19 (antibody, human IgG1, kappa, V domains shown)
VH: EVQLQQSGADLVRSGASIKLSCTASGFNIKDYYMHWVKQRPEQGLEWIGWIDPENGDTEYAPKFQGKATMTADTSSNTAYLQLSSLTSEDTAVYYCNASKELRYFDVWGAGTTVTVSS
VL: DIVLTQSPATLSVTPGDSVSLSCRASQSISINLHWYQQKSHESPRLLIKFASQSISGIPSRFSGYGSGTDFTLSINSVETEDFGRYFCQQSNSWPLTFGAGTKLELKR
In the case of B2, the binding result in the assay with human IL-23 and in the assay with human IL-12 was “binds” in each case.

B3: Antibody 13 (antibody, human IgG1, kappa, V domains shown)
VH: EVQLQQSGADLVRSGASIKLSCTASGFNIKDYYMHWVKQRPEQGLEWIGWIDPENGDTEYAPKFQGKATMTADTSSNTAYLQLSSLTSEDTAVYYCNAIKELRYFDVWGAGTTVTVSS
VL: DIVLTQSPATLSVTPGDSVSLSCRASQSISINLHWYQQKSHESPRLLIKFASQSISGIPSRFSGYGSGTDFTLSINSVETEDFGRYFCQQSNSWPLTFGAGTKLELKR
Consider B3, for which the binding result with human IL-23 and with human IL-12 was “binds” in each case.

B4: Antibody 17 (antibody, human IgG1, kappa, V domains shown)
VH: EVQLQQSGADLVRSGASIKLSCTASGFNIKDYYMHWVKQRPEQGLEWIGWIDPENGDTEYAPKFQGKATMTADTSSNTAYLQLSSLTSEDTAVYYCNAFKELRYFDVWGAGTTVTVSS
VL: DIVLTQSPATLSVTPGDSVSLSCRASQSISINLHWYQQKSHESPRLLIKFASQSISGIPSRFSGYGSGTDFTLSINSVETEDFGRYFCQQSNSWPLTFGAGTKLELKR
B4: the binding result in the assay with human IL-23 and in the assay with human IL-12 was “binds” in each case.

B5: Antibody 9 (antibody, human IgG1, kappa, V domains shown)
VH: EVQLQQSGADLVRSGASIKLSCTASGFNIKDYYMHWVKQRPEQGLEWIGWIDPENGDTEYAPKFQGKATMTADTSSNTAYLQLSSLTSEDTAVYYCNAEKELRYFDVWGAGTTVTVSS
VL: DIVLTQSPATLSVTPGDSVSLSCRASQSISINLHWYQQKSHESPRLLIKFASQSISGIPSRFSGYGSGTDFTLSINSVETEDFGRYFCQQSNSWPLTFGAGTKLELKR
In the case of B5, the binding result with human IL-23 and with human IL-12 was “binds” each time.

B6: Antibody 22 (antibody, human IgG1, kappa, V domains shown)
VH: EVQLQQSGADLVRSGASIKLSCTASGFNIKDYYMHWVKQRPEQGLEWIGWIDPENGDTEYAPKFQGKATMTADTSSNTAYLQLSSLTSEDTAVYYCNAVKELRYFDVWGAGTTVTVSS
VL: DIVLTQSPATLSVTPGDSVSLSCRASQSISINLHWYQQKSHESPRLLIKFASQSISGIPSRFSGYGSGTDFTLSINSVETEDFGRYFCQQSNSWPLTFGAGTKLELKR
For B6, the binding result with human IL-23 and with human IL-12 was “binds” in each case.

B7: Antibody 18 (antibody, human IgG1, kappa, V domains shown)
VH: EVQLQQSGADLVRSGASIKLSCTASGFNIKDYYMHWVKQRPEQGLEWIGWIDPENGDTEYAPKFQGKATMTADTSSNTAYLQLSSLTSEDTAVYYCNAPKELRYFDVWGAGTTVTVSS
VL: DIVLTQSPATLSVTPGDSVSLSCRASQSISINLHWYQQKSHESPRLLIKFASQSISGIPSRFSGYGSGTDFTLSINSVETEDFGRYFCQQSNSWPLTFGAGTKLELKR
For B7, the binding result with human IL-23 and in the assay with human IL-12 was “binds” throughout.

B8: Antibody 8 (antibody, human IgG1, kappa, V domains shown)
VH: EVQLQQSGADLVRSGASIKLSCTASGFNIKDYYMHWVKQRPEQGLEWIGWIDPENGDTEYAPKFQGKATMTADTSSNTAYLQLSSLTSEDTAVYYCNADKELRYFDVWGAGTTVTVSS
VL: DIVLTQSPATLSVTPGDSVSLSCRASQSISINLHWYQQKSHESPRLLIKFASQSISGIPSRFSGYGSGTDFTLSINSVETEDFGRYFCQQSNSWPLTFGAGTKLELKR
B8: the binding result with human IL-23 and with human IL-12 was “binds” in each case.

B9: Antibody 10 (antibody, human IgG1, kappa, V domains shown)
VH: EVQLQQSGADLVRSGASIKLSCTASGFNIKDYYMHWVKQRPEQGLEWIGWIDPENGDTEYAPKFQGKATMTADTSSNTAYLQLSSLTSEDTAVYYCNAQKELRYFDVWGAGTTVTVSS
VL: DIVLTQSPATLSVTPGDSVSLSCRASQSISINLHWYQQKSHESPRLLIKFASQSISGIPSRFSGYGSGTDFTLSINSVETEDFGRYFCQQSNSWPLTFGAGTKLELKR
Turning to B9, the binding result with human IL-23 and in the assay with human IL-12 was “binds” in each case.

B10: Antibody 11 (antibody, human IgG1, kappa, V domains shown)
VH: EVQLQQSGADLVRSGASIKLSCTASGFNIKDYYMHWVKQRPEQGLEWIGWIDPENGDTEYAPKFQGKATMTADTSSNTAYLQLSSLTSEDTAVYYCNAGKELRYFDVWGAGTTVTVSS
VL: DIVLTQSPATLSVTPGDSVSLSCRASQSISINLHWYQQKSHESPRLLIKFASQSISGIPSRFSGYGSGTDFTLSINSVETEDFGRYFCQQSNSWPLTFGAGTKLELKR
For the molecule B10, the binding result with human IL-23 and with human IL-12 was “binds” in each case.

B11: Antibody 12 (antibody, human IgG1, kappa, V domains shown)
VH: EVQLQQSGADLVRSGASIKLSCTASGFNIKDYYMHWVKQRPEQGLEWIGWIDPENGDTEYAPKFQGKATMTADTSSNTAYLQLSSLTSEDTAVYYCNAHKELRYFDVWGAGTTVTVSS
VL: DIVLTQSPATLSVTPGDSVSLSCRASQSISINLHWYQQKSHESPRLLIKFASQSISGIPSRFSGYGSGTDFTLSINSVETEDFGRYFCQQSNSWPLTFGAGTKLELKR
Take B11: the binding result in the assay with human IL-23 and with human IL-12 was “binds” each time.

B12: Antibody 20 (antibody, human IgG1, kappa, V domains shown)
VH: EVQLQQSGADLVRSGASIKLSCTASGFNIKDYYMHWVKQRPEQGLEWIGWIDPENGDTEYAPKFQGKATMTADTSSNTAYLQLSSLTSEDTAVYYCNATKELRYFDVWGAGTTVTVSS
VL: DIVLTQSPATLSVTPGDSVSLSCRASQSISINLHWYQQKSHESPRLLIKFASQSISGIPSRFSGYGSGTDFTLSINSVETEDFGRYFCQQSNSWPLTFGAGTKLELKR
For B12, the binding result with human IL-23 and with human IL-12 was “binds” throughout.

The record behind these values is patent US20110262445A1 (CEPHALON AUSTRALIA, published 2011).
